Reference: patent publication US20220243288, “BIOSENSORS FOR POLYKETIDE EXTENDER UNITS AND USES THEREOF” (NORTH CAROLINA STATE UNIVERSITY, published 2022)

Molecular target: T1, FapR (Bacillus subtilis, UniProt O34835 SEQ:1-188)
T1 sequence: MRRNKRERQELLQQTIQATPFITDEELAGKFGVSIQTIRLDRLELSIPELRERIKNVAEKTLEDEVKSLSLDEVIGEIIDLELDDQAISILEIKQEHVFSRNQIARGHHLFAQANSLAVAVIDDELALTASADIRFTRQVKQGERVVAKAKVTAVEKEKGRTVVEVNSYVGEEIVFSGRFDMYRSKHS
Assay: EMSA; near-complete shift; 2 pmol fapO, 6 pmol FapR (text also says two-fold excess); 10 mM Tris pH 7.5, 100 mM KCl, 30 C; released by 200 uM malonyl-CoA or methylmalonyl-CoA
Conditions: tags: C-terminal His6 (pET28a); chain copies: 2
Source text: The saturated alkyl derivatives emCoA and bmCoA were the poorest effectors, based on the fluorescence data. This robust activity of pgmCoA is due in part to the increased rigidity of the alkyne side-chain or additional interactions of the alkynyl […] with the FapR ligand-binding site, with the […] side-chain of the nearby Phe99 (FIG. 5A). Gratifyingly, de-repression was not observed in the presence of propionyl-CoA and was indistinguishable from the (−) thioester control. To provide further evidence that FapR is de-repressed by derivatives of mCoA, FapR was tested in vitro for DNA-binding and release by electrophoretic mobility shift assay (EMSA) in the presence of mCoA or mmCoA. Using purified wild-type FapR protein, EMSA was run with a 40 bp DNA fragment containing the fapO binding site (FIG. 7). […] Incubation with the FapR-fapO complex with mmCoA achieved a similar level of de-repression as that observed with mCoA (FIG. 7).
Electrophoretic mobility shift assay. The fapO oligonucleotides 5′-[…]-3′ (SEQ ID NO:30) and 5′-[…]-3′ (SEQ ID NO:31) were annealed per standard procedure. […] Reactions were then analyzed by electrophoresis on a 6% PAGE gel at 220 V. The gel was stained with SYBR Green I and imaged on a Typhoon FLA 7000.

B1: 40 bp fapO fragment (dsDNA)
DNA 1: CCTAGGACTATTAGTACCTAGTCTTAATTGTCCGGCATCC
DNA 2: GGATGCCGGACAATTAAGACTAGGTACTAATAGTCCTAGG
Does B1 bind?
Result: binds
